The record followed here is a protein production outcome set (Wang et al. 2014).

The data set is described as follows: label from the status in PepcDB records.
In the case of “MMAACWFGCAPAAELHAYTEDVPPLNYLDNGNVKGYSTEVLQLVAREAGFNLTVEVLPWLRAYAKARDTAGGLLYTVVRTPEREAQFQWVGPIGSRRIYMYRLGPRGNIRVDAASDLTRYRNGVLTGSATASQLQALGLQSGLNLDLGQSDAVNLKKLLLKRVDLIAMLDWAMAWQLRLQRLPENTVAPAWLLDGKLQYWFALNPHTPPEQVAKLQAALDRIRADGRLQAIRRRYRDD”, the protein production entry is given as “failed”.

On to “MMAAREQRSFRQLSLLRQFEGQSLLCASMNIPGPIKCSESLNKTFQSIINLVKEDLRGRIIFEREVHQKTGWEYYCLSDLPVSELKTKMIAIETKISIGRLMDLDVLHLVNGIPQPISRQELGFPRRQCYICQNDAKVCSRSRKHSVIEMQEAIAKFIKINH”, for which the protein production entry is “failed”.

Take “MMALTMDFSTQLLEHQVTAILLLDDQRQIHYANPAAEQLFSQSAQRMAQHAFDDLFHSPQFDLSTLMLPLNTGQSVTDSDVRIMIDEQPLYIELTSSPVAINKSLYLLVEIRQIE”: the protein production entry was “failed”.

“MMCRSITLFLFALISIVVGKQLSAQSISELRLLIDSGRYDRALPIAQQLVAKNPKHADNNYMLGLLLYKAERYEEAIAPLRVAVSRRSDAYEMLADAYAKEYFFSEALAALEKQKVTLVKKKQETVSIDAGIDRMRRAVRLLDRAEWVEVIDSVRTNKADLLSAYNLIADNGRLEWVKGNQGEATSFVNGRGDHAIMTEKGEDGVYSLHEAHRIGGKWGNAIPLEKLNSRFNENYPSLRADGFTLLFASDRPDGIGGYDLYMTRRDLEDGIFLEPTLLGMPFNSPYNDYLLVYDELRGIGFFASDRFCPADVVTVYTFVINEEGRPVATDDMALKRAYASLKSIRATQDPERDYSRLIASARDNRTDAEKKASERQIYFPMQGMRIYTRWSDFQSSEAKSLYQDVMARKRKLEQAATRLEELRLLYGRASALERSGMKQEILRLENAIPPLEEEVGRMEKEVRNMELQAVQGF”: the protein production entry is “failed”.

On to “MMDNDNSLNKRPTFKRALRNISMTSIFITMMLIWLLLSVTSVLTLKQYAQKNLALTAATMTYSLEAAVVFADGPAATETLAALGQQGQFSTAEVRDKQQNILASWHYTRKDPGDTFSNFISHWLFPAPIIQPIRHNGETIGEVRLTARDSSISHFIWFSLAVLTGCILLASGIAITLTRHLHNGLVEALKNITDVVHDVRSNRNFSRRVSEERIAEFHRFALDFNSLLDEMEEWQLRLQAKNAQLLRTALHDPLTGLANRAAFRSGINTLMNNSDARKTSALLFLDGDNFKYINDTWGHATGDRVLIEIAKRLAEFGGLRHKAYRLGGDEFAMVLYDVQSESEVQQICSALTQIFNLPFDLHNGHQTTMTLSIGYAMTIEHASAEKLQELADHNMYQAKHQRAEKLVR”, for which the protein production result is reported as “failed”.

For the sequence “MMEMITIKPGKITVQANPNMPKEVAELFRKQHYEIVGRHSGVKLCHWLKKSLTEGRFCYKQKFYGIHSHRCLQMTPVLAWCTHNCIFCWRPMENFLGTELPQPWDDPAFIVEESIKAQRKLLIGYKGNPKVDKKKFEEAWNPTHAAISLSGEPMLYPYMGDLVEEFHKRGFTTFIVTNGTIPERLEEMIKEDKLPTQLYVSITAPDIETYNSVNIPMIPDGWERILRFLELMRDLPTRTVVRLTLVKGENMHSPEKYAKLILKARPMFVEAKAYMFVGYSRNRLTINNMPSHQDIREFAEALVKHLPGYHIEDEYEPSRVVLIMRDDVDPQGTGVEGRFIKH”, the protein production result is given as “not failed”.

In the case of “MMENQVNEQTVTSPENGSSATGYNSGIWDGLSVVALIGGAIASVVLPANPAAGVIPVAAGVGLHLFNRKQLEEHLLANQRATAAQIVQLVNQNQAHLQEYLQKFQGDIQTSLGQQQQAIAANQENLTKALAEKSLALQGKLEAFQAAAAQTHAGLDIKHQDLLAVVTELRTMEGCTQSLAAYPHAEAYYQRGLSHYRLEDWAEAVRDCTEAIRLRGDLAGAFHHRGMAYARLDNRKQATDDLRQAYKLYFDQGDLDSYEVARALHKQYYEGPVEDLELEPTPVMPPAEGVGHEAYIADPDREIKPLLAEESDTTAANLFG”, the protein production entry is “failed”.

Regarding “MMEQKIMEVLRRMQAILDEACLRDLKTVLQVVFEGCEISQEKRELRVPDRSWAIDLEEYLMSKALEGKSPGTVDRYRYELQRLLSYVNKAVRDITEGDISGYMRAYKAIRQVSNQTLKNVRAVYSSFFAWLRDRDRIRRNPMALVEAIKVEQKIRKPYTDEEREMLLRNCSTLRDKAMMEFFYSTAVRVSELVTLNRDDIRFTSKDLIVFGKGSKERRVYLNDRTNLYMKEYLDSRTDGSPALIVSIRRPHSRLSKTGIEDIIRRTGQRAGVEKAHPHRFRRTSLTNALNRGMPLQEAMVMAGHAKPETTMGYCTVDQEGVKYHHQKYLSA”, the protein production entry is given as “failed”.

For the sequence “MMESGAGFVAMEERISPGSFFQYPLSGFRASPNRSPCPPSDRERYLTELLQERQKLGPFLQVMPNCCRLLNHEIRRVSSFPDLDRYEHGSPFRSLGQPTNGKLDLEGWSMMQAEVSHC”, the protein production result was “failed”.

Take “MMFDEFKRTILREDIKYEIFRKFFHIFSLIVLVFYRINFWIGLFSNILFMILYLSSEIFRITEKKILFFKNISNIILKSRKILPNRVSFSPVFLFLGILISYCLSMHPFNYIGIFSVCLGDGFASLIGKLIPSFKLVNGKTISGSLVVFCVTFFSYYYFFPYLTVALILGILAVLVELFDAANYDNLFLPLVVSASSYFLTSFFYSQ”: the protein production entry is reported as “failed”.

Consider “MMFLSKTLTSLGQWPHSLPRISLMDRYVARQLIPPFLFSVGVVASLGLAIGNLSDLGNKIVEKNLPVAKAAEVLLLKVPEFLAYSLPVAVMLATMMTFGRLSGDCEIIAIRSCGVSLYRLILPAVVLSLLVTGWAFVLTEWVVPVANYRATSILIESIDEEHPFWQNRDVFYPEFEEIKLDNGQTARRLKSLVYAEKFDGKEMQNLTVLQWTENHLKHIVLSDNATWNNDNKRWDFFHGTVYRLTETEDYQEAVPFTNKQIALPQSAFDFARQGRDPYEMTIAEAQDYIKILKLIGDEKKTQFFQVRTEQKLAFPFVCIVFAVVGSAIGARPQRISRATGFGLTIVIIFAYYILGFFSGSLGIVGLISPTLAAWLPNFVGLGVGIWLLYEFNQG”, for which the protein production entry is reported as “failed”.

Turning to “MMGLKAHAMVLEKFNQPLVYKEFEISDIPRGSILVEILSAGVCGSDVHMFRGEDPRVPLPIILGHEGAGRVVEVNGEKRDLNGELLKPGDLIVWNRGITCGECYWCKVSKEPYLCPNRKVYGINRGCSEYPHLRGCYSSHIVLDPETDVLKVSEKDDLDVLAMAMCSGATAYHAFDEYPESFAGKTVVIQGAGPLGLFGVVIARSLGAENVIVIAGSPNRLKLAEEIGADLTLNRRETSVEERRKAIMDITHGRGADFILEATGDSRALLEGSELLRRGGFYSVAGVAVPQDPVPFKVYEWLVLKNATFKGIWVSDTSHFVKTVSITSRNYQLLSKLITHRLPLKEANKALELMESREALKVILYPEG”, the protein production result is reported as “not failed”.

With “MMHPVASSNPAFCGPGKPSCLNEDAMRAADQFDIYSSQQSKYSHTVNHKPMVCQRQDPLNETHLQTTSGRSIEIKDELKKKKNLNRSGKRGRPSGTTKSAGYRTSTGRPLGTTKAAGFKTSPGRPLGTTKAAGYKVSPGRPPGSIKALSRLADLGYGCGTAAFPYPMMHGRAVHGVEETSSEVKPPNE”, the protein production result is “failed”.

For “MMIDPELRPAFLPAGKLRAAINLGNPILAGTDAAGQAVGVSVDLAREFARRLNAGIELRVFDTAGQSVDAVTREEADIGFFAIDPARGAGIAFTGPYVLIEGAYLVRDDSPLQANEDVDRAGKRVTVGKGSAYDLHLTRALQHLEHHHHHH”, the protein production result is “not failed”.

With “MMIIIRVAIMISVVFYLYFIINLLLINHYREPIQSYEKGPTPYELFLVIPVLNEEHVISRTITQLTESLEQLPPTVHAQIIAVDDDSTDHSLLLLTQSSSRFLQILHRTGNQRAGKGAVLNTAVQYIHKTLALKSDPQRTIVGVLDADAFMNTADLTRVLAHFEQEPQLAMIQTSVNIYNQPNWLTKMQNFEFMGVNNATQQLRNRLGQGIASGNGQFVRLDLALQNPWGNSLLEDLEFTLRTWLLGGTRTAFDHTLVVQQEAVEQLRPFFRQRVRWCQGAVQCMRYLPALWRSGRLNHFQKLDTTFWILMPISGCIVPLTSLITLVVLVSRSLQHWQVGWHHLAIGTLLVIAFSACLVLAALYQRNCAVVKQPVGFLDALKQSLTFQAFLLIISLTPYVAIYRQLRGQTGWAKTHHGVTTRVAKYPDTGLKRSY”, the protein production entry is on record as “failed”.

On to “MMIMLSKRPVAMRIALRPLALAASLILSTPFALNATTFGTDLLEGQVLDGIGTGAGNLGTVADIQNTLSNMLRDEAAIGTLASVLPQALQRLPDDRQLRLLQAVVWAATRRDDDARAQMAQIGQEPPNVWRHVAEGLIARNAGDLARAAASLDEARALDPDNAYVHNTAGSIAFAAGDLEAAQEHFAQAVKSAPGWPRLLRQPCRHDDRTRQSARGPDHSGRKPPSPSRLLRHPPDGGRGASVARAVGCCRSRAAHLP”, for which the protein production entry is reported as “failed”.

Take “MMITRGGAKAAKSLLVAAGPRLFSTVRTVSSHEALSASHILKPGVTSAWIWTRAPTIGGMRFASTITLGEKTPMKEEDANQKKTENESTGGDAAGGNNKGDKGIASYWGVEPNKITKEDGSEWKWNCFRPWETYKADITIDLKKHHVPTTFLDRIAYWTVKSLRWPTDLFFQRRYGCRAMMLETVAAVPGMVGGMLLHCKSLRRFEQSGGWIKALLEEAENERMHLMTFMEVAKPKWYERALVITVQGVFFNAYFLGYLISPKFAHRMVGYLEEEAIHSYTEFLKELDKGNIENVPAPAIAIDYWRLPADATLRDVVMVVRADEAHHRDVNHFASDIHYQGRELKEAPAPIGYH”: the protein production result was “failed”.

With “MMKEKLESKKDEIRCCYKITDTDVAVLLKMVEIEKPITSEELADIFKLSKTTVENSLKKLIELGLVVRTKTEGKKIGRPKYYYSISSNILEKIRNDLLNCAKRMELAAT”, the protein production entry was “not failed”.

Consider “MMKEMTVQQMTEKVLNKESLFILDVRNESDFRDWKIEGENFAYLNVPYFELVHGVDSIVDRLPKDQDIVVVCAKGGSAAFVAEQLAEAGFDNVYTLAGGMQAWSEHLHQAKVYEDDQLKIYQFIRVGKGCLSYMVLSGDEALVVDPLRFIDVYEQVAQQEGVTITHIVDSHLHADHLSGGKALAERTGAAYYLMKSEGAVFDFEPLEQHETIDFENVHLEVLAVKTPGHTPGSVSFFVNGKWLFSGDTIFVGGLGRPDLGGKVAEWAEDLYHTVYEKVAAMADDVIVLPAHYANLDEEINAEGYVGDTLGRIRARNEMMQNKAKDEFIDLVIQGAKTETPPNFEDIVAINRGLKTVDIETQRELEIGPNRCALHHTHA”, for which the protein production entry is “failed”.

Regarding “MMKIFIRILLLFYYVFILLACGDKKESISINYILMARVTNMQTDEIKIDTPSRTIFIKLITGGDLSNVHVNLTLAKGVEMVEPANTESVYDFTKPASVTLKYKEEIITYHFIIDTEYNIVDPATLGWVKSTEWGTLPDYLAIYKSPSTLKGKNAVAYIAVADMDKNASFSVLGNATGVKTLTQFYNAESVKPAIVMNGGYFASNGATVSLLYRNNVMLAPNLQSMSRSDGTSNVAFYPTRSAFGEIENGKFEVNWVYTVSSGQTYAYPAPSPNKSGVSPMQIPSVNYPEGASIWKAKNAIGGGPVLLKNGLYKNTWEAELFDTASGIGPTSNNPRSAIGITGDNRLIFFVCEGRNKTPNVPGFTLEEVAYILRDLGCLDAMNLDGGGSSCMLVNGQETIKPSDGAQRSVTTAVAIK”, the protein production result is listed as “failed”.
